From the supplement of paper PMC7125110
± gives the standard error. Variants at the floor of the assay were thinned out.

B1: glmS ribozyme (parent)
chain: AUAAAAGCGCCAGAACUACAGAAAUGUAGUUGACGAGGAGGAGGUUUAUCGAAUUUUCGGCGGAUGCCUCCAAA

Variants of: B1
Test: self-cleavage kobs at 2500 uM GlcN6P; higher = faster cleavage; RNA array
Details: with glucosamine-6-phosphate
How it was run: (§1)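 Tiles bearing barcoded ribozyme variants, transcribed in situ by E. coli RNA polymerase on sequenced MiSeq chips, were imaged over ~14 h at 37 °C using a hybridised Cy3 probe. Glucosamine-6-phosphate was supplied at 40 μM to 10 mM in HEPES/KCl/Mg(OAc)2 buffer. kobs came from one- or two-exponential decay fits to normalised per-tile medians, and weighted Michaelis–Menten fits then provided kcat and KM.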

| Variant | self-cleavage kobs at 2500 uM GlcN6P [s⁻¹] |
| --- | --- |
| C10A G44U U49G U54C G60U C67U | < 1e-05 |
| G26U A36C | < 1e-05 |
| A14C G29C G44C U49G G59C C71U | < 1e-05 |
| G37U G40A G63A | < 1e-05 |
| C11G U56G G59U | 4.72e-05 ± 2e-05 |
| C10G G60C C61A | < 1e-05 |
| C10U C16U G37U G38A A39G C50G A64G U65C | 0.000287 ± 0.00013 |
| A14C U45G C68U | 3.4e-05 ± 1.6e-05 |
| A12G A36C G38A A64U | < 1e-05 |
| A33U A52C G63C | < 1e-05 |
| A6U A12U U54G | 0.000203 ± 6e-05 |
| C16A C50G C67A | 0.00038 ± 0.00013 |
| A12U G41C U46G C68A | < 1e-05 |
| U46A C67G C68U | 0.000113 ± 5.1e-05 |
| C8U A33G A64U | < 1e-05 |
| G13U A39G C71A | 0.000144 ± 4.9e-05 |
| A14U U47A C71G | 0.000172 ± 6.8e-05 |
| U30A A39G C70U | 0.00333 ± 0.00077 |
| A39U U65C C67G | 0.000168 ± 5.5e-05 |
| G26U G32U U55G | 0.000168 ± 8.2e-05 |
| G35U A42U A64U | < 1e-05 |
| U31A A36U G59A | < 1e-05 |
| G40A U46G C67U | 0.000431 ± 0.0002 |

| Variant | self-cleavage kobs at 2500 uM GlcN6P [s⁻¹] |
| --- | --- |
| G29C G32U C67A | 4.32e-05 ± 2e-05 |
| G9C A15U U47G G51C G63C | < 1e-05 |
| G9U C11U G29U A52U | < 1e-05 |
| A6C C34A A39G U45A | < 1e-05 |
| C16A A52U C70G | 0.0002 ± 9.8e-05 |
| C8U U54A C58G | < 1e-05 |
| A33U A64C C70A | < 1e-05 |
| C8G A33C C34U U46G U65C | < 1e-05 |
| A36C A52G C61G | < 1e-05 |
| A6G U65C C68U | < 1e-05 |
| G29U U54A C70A | 6.05e-05 ± 3e-05 |
| G41C G43C U55A U57G U69G | < 1e-05 |
| A15C U30A A33C G41U C50U C68A C70G | < 1e-05 |
| G7A A36G G38A U47G A53G | < 1e-05 |
| A42U U54C C70A | 7.14e-05 ± 2.1e-05 |
| C10U A12C C70A | < 1e-05 |
| C16U A48G A53G | 9.32e-05 ± 2.7e-05 |
| C10A A15U A42C G44C U56A C67G C70G | < 1e-05 |
| C34A A48C U54A | < 1e-05 |
| C8G G9U A14U A15U A64G C70U | < 1e-05 |
| G13A C16U G29U | 5.93e-05 ± 2e-05 |
| G7U G32U U54C C68G | < 1e-05 |
| A53C C61A G62U | < 1e-05 |

Variants of: B1
Test: self-cleavage kobs at 10000 uM GlcN6P; higher = faster cleavage; RNA array
Details: with glucosamine-6-phosphate
How it was run: as §1

| Variant | self-cleavage kobs at 10000 uM GlcN6P [s⁻¹] |
| --- | --- |
| G37U G40A G63A | < 1e-05 |
| C10U C16U G37U G38A A39G C50G A64G U65C | 0.0013 ± 0.0004 |
| A12U G41C U46G C68A | < 1e-05 |
| G13U A39G C71A | 0.000285 ± 6.4e-05 |
| A39U U65C C67G | 0.00025 ± 6e-05 |
| G29C G32U C67A | 0.00017 ± 2.6e-05 |
| G7U G32U U54C C68G | < 1e-05 |
| C50G G63U U65A U69G | 0.000121 ± 2.7e-05 |
| G13U C16U U31A A33U G35C | < 1e-05 |
| C8U G32C A36C G38C | < 1e-05 |
| G7A U30G G41A C70A | < 1e-05 |
| A12G A14C C67U | 7.11e-05 ± 1.5e-05 |
| C11A A15G U57A G62U | < 1e-05 |
| C16G U45C C67G | 0.000811 ± 0.00018 |
| A12U U31G U55C U65A | 0.0008 ± 0.00013 |
| A12G A14C A15G | 0.000141 ± 3e-05 |
| A14U G44U U45G U46G | 4.76e-05 ± 1.9e-05 |
| G29U U46G C68U | 0.000229 ± 4.1e-05 |
| U31A G32A A42G | 0.000766 ± 0.00025 |

| Variant | self-cleavage kobs at 10000 uM GlcN6P [s⁻¹] |
| --- | --- |
| A12U A14G G41A A42G | 0.000918 ± 0.0002 |
| U46G C50G C67G | < 1e-05 |
| A15U C16A A39U | 0.000273 ± 6.1e-05 |
| G9U A12G G37U | < 1e-05 |
| A15C C16G U31A | 0.000253 ± 7.3e-05 |
| G35C A48U C70G | < 1e-05 |
| G9U A42U U55G | < 1e-05 |
| U30C G44U C58G | < 1e-05 |
| U31G A36U G40C U56G G66A | < 1e-05 |
| C8G G9A G35A A36U | < 1e-05 |
| U47A U65G G66U | 0.00262 ± 0.00053 |
| G35C G44A U46G | < 1e-05 |
| A33C A52G U54A | < 1e-05 |
| A6C U47G U49C C67U | < 1e-05 |
| G38C C50A | < 1e-05 |
| C10U U55C G62U | < 1e-05 |
| G9U G41U A42G A52U A64U C68U | < 1e-05 |
| U31G A53G U69C | 0.00324 ± 0.00093 |
| G32C A36C G51C | < 1e-05 |
